Data on one substance can be found in publication PMC12335825.

The target of the assay is MD39 HIV Env stabilized SOSIP trimer (MD39 HIV Env gp140) (HIV). The assay is described as follows: SEC-MALS; immunogens after S200 Increase size-exclusion chromatography in TBS; DAWN HELEOS II and Optilab T-rEX.

A word on the stoichiometry N: it is a count of units in the complex or per binding partner. Substance “MD39 HIV Env stabilized SOSIP trimer (MD39 HIV Env gp140)” registered a stoichiometry N of 3.
